{"source": "paper PMC8390506", "about": "“Interaction of spindle assembly factor TPX2 with importins-α/β inhibits protein phase separation” (The Journal of Biological Chemistry, 2021)", "binders": {"B1": {"name": "importin-α/β heterodimer (complex)", "chain 1": "not shown", "chain 2": "MELVTILEKTVSPDRNELEAAQKFLEQAAVENLPTFVVELSKVLANPANSQVARVAAGLQIKNPLTSRDPDVKAQYQQRWLAIDASARGEIKTYVLRTLGTESYRPSSASQCVAGIACAEITVNQWPQLIPQLVANVTDPNSTERMKESTLEAIGYICQDIDPEQLQHKSNEILTAIIQGMRKEEPSNNVRLAATNALLNSLEFTKANFDKESERHYIMQVVCEATQCPDTRVRVAALQNLVKIMSLYYQYMETYMGPALFAITVEAMKNEIDEVALQGIEFWSNVCDEEMDLAIEASEAAEQGRPPEHTSKFYAKGALQYLVPILTQTLTKQDENDDDDDWNPCKAAGVCLMLLATCCEDDIVPHVLPFIKEHIKNPDWRYRDAAVMAFGCILEGPESCQLKPLVIQAMPTLIELMKDPSVVVRDTTAWTVGRICELLPEAAINDVYLAPLLQCLIEGLGAEPRVASNVCWAFSSLAEAAYEAADVADDQEEPSSYCLSSSFEVIVQKLLETTDRPDGHQNNLRSAAYEALMEIVKNSAKDCYPAVQKTTLVIMERLQQVLQVESHIQSTSDRIQFNDLQSLLCATLQNVLRKVQHQDALQISDVVMASLLRMFQSTAGSGGVQEDALMAVSTLVEVLGAEFLKYMEAFKPFLTIGLKNYAEYQVCLAAVGLVGDLCRALQSNILPFCDEMMQFLLENLGNENVHRSVKPQILSVFGDVALAIGGEFKKYLDVVLNTLQQASQAQVDKSDYDMVDYLNELREGCIEAYTGIIQGLKGDQENVHPDVMLVQPRVEFILSFIDHIAGDEDHTDSVVACGAGLIGDLCTAFGKDVLKLVEARPMIHELLTEGRRSKTNKTKTLATWATKELRKLKNQA"}, "B2": {"name": "importin-β (natural protein, Xenopus laevis, UniProt P52297 1-876, looked up)", "chain": "MELVTILEKTVSPDRNELEAAQKFLEQAAVENLPTFVVELSKVLANPANSQVARVAAGLQIKNPLTSRDPDVKAQYQQRWLAIDASARGEIKTYVLRTLGTESYRPSSASQCVAGIACAEITVNQWPQLIPQLVANVTDPNSTERMKESTLEAIGYICQDIDPEQLQHKSNEILTAIIQGMRKEEPSNNVRLAATNALLNSLEFTKANFDKESERHYIMQVVCEATQCPDTRVRVAALQNLVKIMSLYYQYMETYMGPALFAITVEAMKNEIDEVALQGIEFWSNVCDEEMDLAIEASEAAEQGRPPEHTSKFYAKGALQYLVPILTQTLTKQDENDDDDDWNPCKAAGVCLMLLATCCEDDIVPHVLPFIKEHIKNPDWRYRDAAVMAFGCILEGPESCQLKPLVIQAMPTLIELMKDPSVVVRDTTAWTVGRICELLPEAAINDVYLAPLLQCLIEGLGAEPRVASNVCWAFSSLAEAAYEAADVADDQEEPSSYCLSSSFEVIVQKLLETTDRPDGHQNNLRSAAYEALMEIVKNSAKDCYPAVQKTTLVIMERLQQVLQVESHIQSTSDRIQFNDLQSLLCATLQNVLRKVQHQDALQISDVVMASLLRMFQSTAGSGGVQEDALMAVSTLVEVLGAEFLKYMEAFKPFLTIGLKNYAEYQVCLAAVGLVGDLCRALQSNILPFCDEMMQFLLENLGNENVHRSVKPQILSVFGDVALAIGGEFKKYLDVVLNTLQQASQAQVDKSDYDMVDYLNELREGCIEAYTGIIQGLKGDQENVHPDVMLVQPRVEFILSFIDHIAGDEDHTDSVVACGAGLIGDLCTAFGKDVLKLVEARPMIHELLTEGRRSKTNKTKTLATWATKELRKLKNQA", "notes": "importin-β, Xenopus laevis; Construct in the Supplemental information; The UniProt entry recalled may be a fragment; also called importin-β alone; source: recombinant, purified to >95% purity"}, "B3": {"name": "Targeting Protein for XKlp2 (TPX2), full length, wild type (natural protein, Xenopus laevis, UniProt Q6NUF4 1-716, looked up)", "chain": "MEDTQDTYSYDAPSIFNFSSFHEDHNADSWFDQVTNAENIPPDQRRLSETSVNTEQNSKVEPVQTTPSKDDVSNSATHVCDVKSQSKRSSRRMSKKHRQKLLVKMKDTHLEKETAPPEYPPCKKLKGSSSKGRHAPVIKSQSTSSHHSMTSPKPKAQLTMPSTPTVLKRRNVLVKAKNSEEQELEKMQELQKEMLENLKKNEHSMKVAITGAGQPVKTFIPVTKPVDFHFKTDDRLKRTANQPEGDGYKAVDFASELRKHPPSPVQVTKGGHTVPKPFNLSKGKRKHEEASDYVSTAEQVIAFYKRTPARYHLRSRQREMEGPSPVKMIKTKLTNPKTPLLQTKGRHRPVTCKSAAELEAEELEMINQYKFKAQELDTRILEGGPVLLKKPLVKEPTKAIGFDLEIEKRIQQREKKEEIEEETFTFHSRPCPSKMLTDVVGVPLKKLLPVTVPQSPAFALKNRVRIPAQEEKQEEMVPVIKATRMPHYGVPFKPKLVEQRQVDVCPFSFCDRDKERQLQKEKRLDELRKDEVPKFKAQPLPQFDNIRLPEKKVKMPTQQEPFDLEIEKRGASKLQRWQQQIQEELKQQKEMVVFKARPNTVVHQEPFVPKKENRSLTESLSGSIVQEGFELATAKRAKERQEFDKCLAETEAQKSLLEEEIRKRREEEEKEEISQLRQELVHKAKPIRKYRAVEVKASDVPLTVPRSPNFSDRFKC", "notes": "TPX2, Xenopus laevis, full length; 1 to 716; Named GFP-TPX2 for SEC-MALS; also called GFP-TPX2; wt-TPX2; source: recombinant, purified to >95% purity"}}, "key": {"importin-β": {"target": "B2", "assay": "BLI; Octet (ForteBio); TPX2 attached to sensors, importin concentration varied; normalized amplitudes; apparent Kd", "settings": "both partners purified"}, "[1]": {"target": "B3", "assay": "cell-based or functional assay"}, "[2]": {"target": "B3", "assay": "SEC-MALS; Superdex-200-increase 3.2/300 in line with a Wyatt light scattering machine; GFP-TPX2 alone, importin-α/β alone and TPX2 with importin-α/β (TPX2 printed as 5 M, importin-α/β 15 μM)", "settings": "both partners purified"}, "GST-importin-α": {"target": "GST-importin-α (Xenopus laevis)", "sequence (chain, as listed by the source)": "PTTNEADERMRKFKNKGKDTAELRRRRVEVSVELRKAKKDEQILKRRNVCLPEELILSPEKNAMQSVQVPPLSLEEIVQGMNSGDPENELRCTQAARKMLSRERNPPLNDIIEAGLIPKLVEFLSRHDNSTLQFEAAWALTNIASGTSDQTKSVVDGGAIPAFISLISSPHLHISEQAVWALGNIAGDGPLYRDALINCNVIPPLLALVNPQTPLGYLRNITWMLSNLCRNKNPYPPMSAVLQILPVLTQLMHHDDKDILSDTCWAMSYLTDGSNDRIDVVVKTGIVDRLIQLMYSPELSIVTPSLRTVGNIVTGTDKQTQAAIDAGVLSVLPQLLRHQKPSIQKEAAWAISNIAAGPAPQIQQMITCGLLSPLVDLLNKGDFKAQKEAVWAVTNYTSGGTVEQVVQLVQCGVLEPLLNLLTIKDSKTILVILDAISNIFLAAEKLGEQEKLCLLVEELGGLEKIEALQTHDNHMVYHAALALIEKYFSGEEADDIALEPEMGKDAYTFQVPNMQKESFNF", "assay": "SEC-MALS; Superdex-200-increase 3.2/300 in line with a Wyatt light scattering machine; GFP-TPX2 alone, importin-α/β alone and TPX2 with importin-α/β (TPX2 printed as 5 M, importin-α/β 15 μM)", "settings": "both partners purified"}, "importin-α/β heterodimer": {"target": "B1", "assay": "BLI; Octet (ForteBio); TPX2 attached to sensors, importin concentration varied; normalized amplitudes; apparent Kd", "settings": "both partners purified"}}, "data": [{"binder": "TPX2 N terminus (a.a. 1-480) (domain or fragment, Xenopus laevis, UniProt Q6NUF4 1-480, looked up, TPX2, Xenopus laevis, amino acids 1-480 (disordered N-terminal region); also called N-terminal region (a.a. 1-480) of TPX2; source: recombinant, purified to >95% purity) MEDTQDTYSYDAPSIFNFSSFHEDHNADSWFDQVTNAENIPPDQRRLSETSVNTEQNSKVEPVQTTPSKDDVSNSATHVCDVKSQSKRSSRRMSKKHRQKLLVKMKDTHLEKETAPPEYPPCKKLKGSSSKGRHAPVIKSQSTSSHHSMTSPKPKAQLTMPSTPTVLKRRNVLVKAKNSEEQELEKMQELQKEMLENLKKNEHSMKVAITGAGQPVKTFIPVTKPVDFHFKTDDRLKRTANQPEGDGYKAVDFASELRKHPPSPVQVTKGGHTVPKPFNLSKGKRKHEEASDYVSTAEQVIAFYKRTPARYHLRSRQREMEGPSPVKMIKTKLTNPKTPLLQTKGRHRPVTCKSAAELEAEELEMINQYKFKAQELDTRILEGGPVLLKKPLVKEPTKAIGFDLEIEKRIQQREKKEEIEEETFTFHSRPCPSKMLTDVVGVPLKKLLPVTVPQSPAFALKNRVRIPAQEEKQEEMVPVI", "values": [{"measurement": "Kd", "setting": "importin-β", "result": "512 ± 70", "unit": "nM"}]}, {"binder": "B1", "values": [{"measurement": "inhibition of TPX2 condensation (fluorescence microscopy; TPX2 1 μM, importin-α/β in molar excess)", "setting": "[1]", "result": 2, "unit": "fold excess"}, {"measurement": "stoichiometry N", "setting": "[2]", "result": "1 TPX2:importin-α:importin-β"}]}, {"binder": "B2", "values": [{"measurement": "TPX2-mediated branching microtubule nucleation in Xenopus egg cytosol (TIRF microscopy; TPX2 150 nM, importin-β 2.5x to 20x)", "setting": "[1]", "result": 10, "unit": "fold molar excess"}, {"measurement": "stoichiometry N", "setting": "GST-importin-α", "result": "1 importin-α:importin-β"}]}, {"binder": "TPX2 C terminus (a.a. 480-716) (domain or fragment, Xenopus laevis, UniProt Q6NUF4 480-716, looked up, TPX2, Xenopus laevis, amino acids 480-716 (ordered C-terminal region); also called TPX2's C terminus; source: recombinant, purified to >95% purity) IKATRMPHYGVPFKPKLVEQRQVDVCPFSFCDRDKERQLQKEKRLDELRKDEVPKFKAQPLPQFDNIRLPEKKVKMPTQQEPFDLEIEKRGASKLQRWQQQIQEELKQQKEMVVFKARPNTVVHQEPFVPKKENRSLTESLSGSIVQEGFELATAKRAKERQEFDKCLAETEAQKSLLEEEIRKRREEEEKEEISQLRQELVHKAKPIRKYRAVEVKASDVPLTVPRSPNFSDRFKC", "values": [{"measurement": "Kd", "setting": "importin-β", "result": "> 4000", "unit": "nM"}]}, {"binder": "B3", "values": [{"measurement": "Kd", "setting": "importin-β", "result": "530 ± 75", "unit": "nM"}, {"measurement": "Kd", "setting": "importin-α/β heterodimer", "result": "75 ± 15", "unit": "nM"}]}]}
